This passage reports fold PIKfyve association over wild-type Fig4 results from article PMC7525815.

This test addresses Fig4-C486S-Citrine (human) (human) (UniProt Q92562). As to the kind of experiment: co-IP.
Chain of UniProt Q92562 (Q92562 whole entry C486S): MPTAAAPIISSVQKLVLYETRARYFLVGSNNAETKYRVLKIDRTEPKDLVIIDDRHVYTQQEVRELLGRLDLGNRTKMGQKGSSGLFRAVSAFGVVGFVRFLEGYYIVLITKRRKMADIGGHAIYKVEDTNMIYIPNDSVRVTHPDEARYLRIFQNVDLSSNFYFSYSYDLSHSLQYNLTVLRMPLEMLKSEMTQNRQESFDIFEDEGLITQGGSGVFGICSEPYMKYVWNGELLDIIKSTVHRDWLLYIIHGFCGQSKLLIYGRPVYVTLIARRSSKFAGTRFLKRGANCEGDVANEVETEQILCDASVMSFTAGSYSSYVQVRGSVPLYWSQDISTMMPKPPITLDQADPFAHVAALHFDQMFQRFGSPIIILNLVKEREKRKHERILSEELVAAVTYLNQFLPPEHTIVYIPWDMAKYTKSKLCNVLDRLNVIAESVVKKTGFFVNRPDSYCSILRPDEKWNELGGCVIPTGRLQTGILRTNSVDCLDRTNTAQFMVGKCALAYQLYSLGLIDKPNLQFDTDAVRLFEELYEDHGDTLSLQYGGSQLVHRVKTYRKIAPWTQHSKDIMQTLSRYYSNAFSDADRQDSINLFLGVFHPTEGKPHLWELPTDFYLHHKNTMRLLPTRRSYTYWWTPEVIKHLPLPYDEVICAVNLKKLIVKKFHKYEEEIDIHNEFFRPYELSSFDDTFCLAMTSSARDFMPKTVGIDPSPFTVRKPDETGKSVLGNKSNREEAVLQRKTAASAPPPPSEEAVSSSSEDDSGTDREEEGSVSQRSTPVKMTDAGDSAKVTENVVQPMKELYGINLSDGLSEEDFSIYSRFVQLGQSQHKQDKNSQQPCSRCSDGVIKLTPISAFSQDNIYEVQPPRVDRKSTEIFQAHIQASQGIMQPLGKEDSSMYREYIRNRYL

With PIKfyve, Q9Y2I7 1-2098, the fold PIKfyve association over wild-type Fig4 stood at 9.27 fold.
